Columns and labels:
[1] = target: Amyloid-beta 1-42 (synthetic) (UniProt P05067 672-713); experiment: GFET Dirac shift; LoD 10 fM (not a Kd); GFET with immobilised aptamer; protein in 0.1x PBS (LoD series) or PBS; aptamer dissolved in 1x PBS + 0.5 mM MgCl2; pH and temperature of binding not given
[2] = target: Amyloid-beta 1-42, brain-derived (human (AD patient brain), UniProt P05067 672-713); experiment: GFET Dirac shift; detected to ~10 fM, dose-dependent; GFET with immobilised aptamer; protein in 0.1x PBS (LoD series) or PBS; aptamer dissolved in 1x PBS + 0.5 mM MgCl2; pH and temperature of binding not given; conditions: protein: native
Chain of Amyloid-beta 1-42, brain-derived (P05067 672-713): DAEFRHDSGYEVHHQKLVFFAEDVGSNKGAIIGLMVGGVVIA

[3] = target: alpha-synuclein, brain-derived (human (PD patient brain), UniProt P37840 1-140); experiment: GFET Dirac shift; detected to 10-100 nM as printed; GFET with immobilised aptamer; protein in 0.1x PBS (LoD series) or PBS; aptamer dissolved in 1x PBS + 0.5 mM MgCl2; pH and temperature of binding not given
[4] = target: alpha-synuclein (synthetic/commercial) (UniProt P37840 1-140); experiment: GFET Dirac shift; LoD 10-100 fM (not a Kd); GFET with immobilised aptamer; protein in 0.1x PBS (LoD series) or PBS; aptamer dissolved in 1x PBS + 0.5 mM MgCl2; pH and temperature of binding not given
Tau, brain-derived = Tau, brain-derived (human (AD patient brain), UniProt P10636-8 1-441); experiment: GFET Dirac shift; detected to 10-100 fM; GFET with immobilised aptamer; protein in 0.1x PBS (LoD series) or PBS; aptamer dissolved in 1x PBS + 0.5 mM MgCl2; pH and temperature of binding not given; conditions: protein: native
Chain of Tau, brain-derived (P10636 other isoform, or with tags, fused parts or gaps): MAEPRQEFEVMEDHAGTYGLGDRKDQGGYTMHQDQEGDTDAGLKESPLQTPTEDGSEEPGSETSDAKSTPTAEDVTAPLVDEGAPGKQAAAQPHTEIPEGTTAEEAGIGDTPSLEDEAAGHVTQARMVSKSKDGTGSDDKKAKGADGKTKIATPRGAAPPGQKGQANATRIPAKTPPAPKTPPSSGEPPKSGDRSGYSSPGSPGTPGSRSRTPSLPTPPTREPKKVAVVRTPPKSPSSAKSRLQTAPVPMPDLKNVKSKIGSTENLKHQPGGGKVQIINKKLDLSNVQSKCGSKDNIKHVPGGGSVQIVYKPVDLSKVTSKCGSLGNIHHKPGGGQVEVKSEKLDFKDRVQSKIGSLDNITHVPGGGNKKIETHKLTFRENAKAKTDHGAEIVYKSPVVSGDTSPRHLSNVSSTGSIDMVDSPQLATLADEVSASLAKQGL

[5] = target: Tau441 (synthetic/commercial) (human, UniProt P10636-8 1-441); experiment: GFET Dirac shift; LoD 1-10 pM in abstract, ~100 fM in Results (not a Kd); GFET with immobilised aptamer; protein in 0.1x PBS (LoD series) or PBS; aptamer dissolved in 1x PBS + 0.5 mM MgCl2; pH and temperature of binding not given
Chain of Tau441 (synthetic/commercial) (P10636 other isoform, or with tags, fused parts or gaps): as above

Chain of Amyloid-beta 1-42 (synthetic) (P05067 672-713): as the sequence (P05067 672-713) above

B1: Abeta aptamer Abeta7-92-1H1 (ssDNA)
DNA: CCGGTGGGGGACCAGTACAAAAGTGGGTAGGGCGGGTTGGAAAA
modifications: 3' amino
B1: binds [1]; binds [2].

B2: alpha-synuclein aptamer F5R1 (ssDNA)
DNA: ATCGAGTGTGTACGGGGTCCGGTAGGGTGGCGAGGTCTTCCTGTCGTAGCAGGATCCA
modifications: 3' amino
B2: binds [3]; binds [4].

B3: Tau aptamer IT2 (ssDNA)
DNA: CAGCACCGTCAACTGAATAAGGACTGCTTAGGATTGCGATGATTCAGGGTGATGCGATGGAGATGT
modifications: 3' amino
B3: binds (Tau, brain-derived); binds [5].

Source: article PMC10666025, “In pursuit of degenerative brain disease diagnosis: Dementia biomarkers detected by DNA aptamer-attached portable graphene biosensor”
